Read-outs that look alike come from different tables or passages of the source.

The target of test [1] is T1, recombinant cynomolgus monkey OX40L (Novoprotein cat. #CP72) (cynomolgus monkey, UniProt P23510 51-183 (human entry), limits assumed).
T1 construct: Bought protein; also called cynomolgus OX40L
T1 chain: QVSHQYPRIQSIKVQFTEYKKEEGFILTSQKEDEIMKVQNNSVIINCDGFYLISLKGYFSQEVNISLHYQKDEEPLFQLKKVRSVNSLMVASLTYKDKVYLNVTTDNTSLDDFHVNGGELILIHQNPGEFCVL
The experiment in a line: flow cytometry on CHO-S-OX40L cells / ELISA on recombinant OX40L (sentence does not say which).

Test [2] concerns the target T2, recombinant human OX40L protein (R&D Systems, cat. #1054-OX) (human, UniProt P23510 51-183).
T2 construct: Bought soluble recombinant protein; also called rhOX40L; recombinant soluble OX40L
T2 sequence: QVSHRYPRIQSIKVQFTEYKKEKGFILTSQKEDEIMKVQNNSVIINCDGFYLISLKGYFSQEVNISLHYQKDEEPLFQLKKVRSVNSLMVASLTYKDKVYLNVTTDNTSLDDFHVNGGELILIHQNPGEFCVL
The experiment in a line: SPR steady state, Biacore T200; OX40L immobilised on CM5, antibody in solution. How it is done:
(§1) Recombinant OX40L proteins (human OX40L protein, R&D systems, cat. #1054-OX; cynomolgus monkey OX40L, Novoprotein cat. #CP72) were immobilized onto Biacore CM5 sensor chips and anti-OX40L antibodies were bound to this surface at a range of concentrations. The response at steady state was measured with a Biacore T200 instrument (GE Healthcare) and plotted against the concentration of antibody and fit to a 1:1 binding model. The steady state KD was determined as the antibody concentration at a response equal to half the maximal response (Rₘₐₓ).
Steady state affinity assay was performed as described in section 1.1.7 of Example 1.

In test [3] the target is T2, recombinant human OX40L protein (R&D …). The test is described as follows: cell-based or functional assay.
The target of test [4] is T3, AVI-GST-His6-hOX40L (human, UniProt P23510 51-183).
T3 sequence: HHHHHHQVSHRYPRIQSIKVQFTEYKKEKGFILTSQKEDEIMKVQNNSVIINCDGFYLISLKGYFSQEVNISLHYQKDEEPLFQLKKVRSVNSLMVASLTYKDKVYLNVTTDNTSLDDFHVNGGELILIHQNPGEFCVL
The test is described as follows: cell-based or functional assay.

In another test the target is T4, mouse OX40L (mouse, UniProt P43488 51-198, limits assumed).
T4 sequence: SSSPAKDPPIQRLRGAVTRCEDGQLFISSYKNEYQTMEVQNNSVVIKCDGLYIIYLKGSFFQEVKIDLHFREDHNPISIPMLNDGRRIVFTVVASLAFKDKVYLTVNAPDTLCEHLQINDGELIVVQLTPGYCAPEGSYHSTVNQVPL
The experiment in a line: flow cytometry on CHO-S cells / ELISA on recombinant protein (sentence does not say which).

Test [5] has as its target T3, AVI-GST-His6-hOX40L. The experiment in a line: cell-based or functional assay. This is another data set of the same source.
Test [6] has as its target T2, recombinant human OX40L protein (R&D …). The experiment in a line: cell-based or functional assay. This is another data set of the same source.
For test [7], the target named is T3, AVI-GST-His6-hOX40L. The test is described as follows: cell-based or functional assay. This is another data set of the same source.
For test [8], the target named is T2, recombinant human OX40L protein (R&D …). The test is described as follows: SPR steady state, Biacore T200; OX40L immobilised on CM5, antibody in solution. How it is done: as §1
The source holds these as a separate data set.

The target is the same in test [9]. The experiment in a line: SPR steady state affinity to human OX40L. How it is done: as §1
Test [10] concerns the target T3, AVI-GST-His6-hOX40L. The test is described as follows: cell-based or functional assay. The source holds these as a separate data set.
Test [11] addresses T3, AVI-GST-His6-hOX40L. The test is described as follows: cell-based or functional assay. This is another data set of the same source.
Test [12] addresses T2, recombinant human OX40L protein (R&D …). The test is described as follows: SPR steady state, Biacore T200; OX40L immobilised on CM5, FcFab in solution. How it is done: as §1
As with the IgG clones, binding affinity to human OX40L was determined for all twelve FcFabs using steady state affinity assay as described in section 1.1.7 of Example 1. […]

Test [13] shares this target. The test is described as follows: cell-based or functional assay. The source holds these as a separate data set.
In test [14] the target is T3, AVI-GST-His6-hOX40L. The test is described as follows: cell-based or functional assay. The source holds these as a separate data set.

B1: 89B09 (IgG) (antibody)
heavy: not shown
light: SSELTQDPAVSVALGQTVRITCQGDSVRRFFAHWYQQKPGQAPILVISGKDTRPSGIPDRFSGSISGNTASLTITGAQAEDEADYYCNSRDSSGYLVLFGGGTKLTVLGQPKAAPSVTLFPPSSEELQANKATLVCLISDFYPGAVTVAWKADSSPVKAGVETTTPSKQSNNKYAASSYLSLTPEQWKSHKSYSCQVTHEGSTVEKTVAPTECS
For the molecule B1, the binding result in test [1] was “binds”; with mouse OX40L, “no binding”. The Kd in [2] came to 31.6 nM. Also, in [3], the “Primary T cell activation assay IC50” value is 10.7 nM. Further, in the test with AVI-GST-His6-hOX40L [4], the “OX40L neutralization/OX40-HEK Reporter IC50” value amounted to 4.4 nM.

B2: 88B06 (IgG) (antibody)
heavy: not shown
light: SYELTQPLSVSVALGQTARISCGGNNIGRKNVHWYQQKPGQAPVLVIYGDSNRPSGIPERFSGSNSGNTATLTIGRAQAGDEADYYCQVWDSSTVFGGGTKLTVLGQPKAAPSVTLFPPSSEELQANKATLVCLISDFYPGAVTVAWKADSSPVKAGVETTTPSKQSNNKYAASSYLSLTPEQWKSHKSYSCQVTHEGSTVEKTVAPTECS
On to B2, for which the binding result in test [1] is recorded as “binds”; with mouse OX40L, “no binding”. Further, in test [2], the Kd is 23.2 nM. Moreover, the “Primary T cell activation assay IC50” value in test [3] was 28.5 nM. The “OX40L neutralization/OX40-HEK Reporter IC50” value in the test with AVI-GST-His6-hOX40L [4] came to 18.9 nM.

B3: 95B06 (IgG) (antibody)
heavy: not shown
light: DMQMTQSPSSLSASVGDRVTITCRASQGIRNDLDWYQQKPGKVPKRLIHAASSLQSGVPSRFSGSGSGTEFTLTISSLQPEDFVTYYCLQHNTYPWTFGQGTKLEIKRTVAAPSVFIFPPSDEQLKSGTASVVCLLNNFYPREAKVQWKVDNALQSGNSQESVTEQDSKDSTYSLSSTLTLSKADYEKHKVYACEVTHQGLSSPVTKSFNRGEC
On to B3, for which the figures for the binding result (in [1]; in the test with mouse OX40L) were “binds” and “no binding”, respectively. In addition, in test [2], the Kd amounted to 42.4 nM. In addition, the “Primary T cell activation assay IC50” value in test [3] amounted to 7.4 nM. For the same molecule, in the test with AVI-GST-His6-hOX40L [4], the “OX40L neutralization/OX40-HEK Reporter IC50” value is 3.7 nM.

B4: Ref1_Anti-OX40L (US Pat. No. 9,139,653) (antibody, V domains shown)
VH: EVQLVESGGGLVQPGGSLRLSCAASGFTFSNYAMNWVRQAPGKGLEWVSTISGSGGATRYADSVKGRFTISRDNSRNTVYLQMNSLRVEDTAVFYCTKDRLIMATVRGPYYYGMDVWGQGTTVTVSS
VL: DIQMTQSPSSLSASVGDRVTITCRASQSISSYLNWYQQKPGKAPNLLIYAASSLQSGVPSRFSGSGSETDFTLTISSLQPEDFATYYCQQSHSVSFTFGPGTKVDIK
For the molecule B4, the “IC50 (read off the curve)” value with AVI-GST-His6-hOX40L [5] is around 5 nM. Also, the “Primary T cell activation assay IC50” value in test [6] is 5.7 nM. Also, the “OX40L neutralization/OX40-HEK Reporter IC50” value with AVI-GST-His6-hOX40L [7] stood at 7.3 nM. In addition, the Kd in test [8] and in [9] was 31.9 nM throughout.

B5: 67B06 (IgG) (antibody)
heavy: not shown
light: SYELTQPLSVSVALGQTARMTCGGSDIENKNVHWYQQKPGQAPVLVIHRDNNRPSGIPERFSGSNSGNTATLTISRAQAGDEADYYCQVRDSNIVVFGGGTKLTVLGQPKAAPSVTLFPPSSEELQANKATLVCLISDFYPGAVTVAWKADSSPVKAGVETTTPSKQSNNKYAASSYLSLTPEQWKSHKSYSCQVTHEGSTVEKTVAPTECS
notes: also called 67B06 (IgG format)
B5: the “IC50 (read off the curve)” value in the test with AVI-GST-His6-hOX40L [10] is around 5 nM. The binding result is given as “binds” in test [1] and “no binding” with mouse OX40L. The Kd in test [2] was 12.7 nM. Also, the “Primary T cell activation assay IC50” value in [3] came out at 20.9 nM. In the test with AVI-GST-His6-hOX40L [4], the “OX40L neutralization/OX40-HEK Reporter IC50” value turned out to be 5.2 nM.

B6: 67B06 (FcFab) (antibody)
heavy: EPKSSDKTHTCPPCPAPPVAGPSVFLFPPKPKDTLMISRTPEVTCVVVDVSHEDPEVKFNWYVDGVEVHNAKTKPREEQYNSTYRVVSVLTVLHQDWLNGKEYKCAVSNKALPSSIEKTISKAKGQPREPQVYTLPPSREEMTKNQVSLTCLVKGFYPSDIAVEWESNGQPENNYKTTPPVLDSDGSFFLYSKLTVDKSRWQQGNVFSCSVMHEALHNHYTQKSLSLSPGAGGGGSGGGGSGGGGSQLQLQESGPGLVKPSETLSLTCSVSGGSISTSSYYWGWIRQPPGKGLEWSGSIYYSGSTYYRPSLQGRATISVDTSKNQFSLKLTSVTAADTAVYYCARHRGSYFFDIWGLGTLVTVSSASTKGPSVFPLAPSSKSTSGGTAALGCLVKDYFPEPVTVSWNSGALTSGVHTFPAVLQSSGLYSLSSVVTVPSSSLGTQTYICNVNHKPSNTKVDKRVEPKSC
light: SYELTQPLSVSVALGQTARMTCGGSDIENKNVHWYQQKPGQAPVLVIHRDNNRPSGIPERFSGSNSGNTATLTISRAQAGDEADYYCQVRDSNIVVFGGGTKLTVLGQPKAAPSVTLFPPSSEELQANKATLVCLISDFYPGAVTVAWKADSSPVKAGVETTTPSKQSNNKYAASSYLSLTPEQWKSHKSYSCQVTHEGSTVEKTVAPTECS
In the case of B6, in the test with AVI-GST-His6-hOX40L [11], the “IC50 (read off the curve)” value is around 6 nM. In test [12], the Kd turned out to be 20.3 nM. The “Primary T cell activation assay IC50” value in [13] stood at 7.2 nM. Further, the “OX40L neutralization/OX40-HEK Reporter IC50” value in the test with AVI-GST-His6-hOX40L [14] is 5.5 nM.

B7: 97G07 (IgG) (antibody)
heavy: not shown
light: YYELTQPLSVSVALGQTARIPCGGNNIENKNVHWYQQKPGQAPVLVIYRDSNRPSGIPERFSGSNSGNTATLSINRAQAGDEADYYCQVWDSNTVIFGGGTKVTVLGQPKAAPSVTLFPPSSEELQANKATLVCLISDFYPGAVTVAWKADSSPVKAGVETTTPSKQSNNKYAASSYLSLTPEQWKSHKSYSCQVTHEGSTVEKTVAPTECS
As for B7, the “IC50 (read off the curve)” value with AVI-GST-His6-hOX40L [10] was around 9 nM. Further, the results for the binding result (in [1]; in the test with mouse OX40L) were “binds” and “no binding”, respectively. Also, the Kd in [2] turned out to be 16.6 nM. The “Primary T cell activation assay IC50” value in [3] amounted to 16.7 nM. Further, the “OX40L neutralization/OX40-HEK Reporter IC50” value with AVI-GST-His6-hOX40L [4] is 7.5 nM.

B8: 97G07 (FcFab) (antibody, IgG1)
heavy: EPKSSDKTHTCPPCPAPPVAGPSVFLFPPKPKDTLMISRTPEVTCVVVDVSHEDPEVKFNWYVDGVEVHNAKTKPREEQYNSTYRVVSVLTVLHQDWLNGKEYKCAVSNKALPSSIEKTISKAKGQPREPQVYTLPPSREEMTKNQVSLTCLVKGFYPSDIAVEWESNGQPENNYKTTPPVLDSDGSFFLYSKLTVDKSRWQQGNVFSCSVMHEALHNHYTQKSLSLSPGAGGGGSGGGGSGGGGSQLQLQESGPGLVKPSETLSLTCTVSGGSISSSSYYWGWIRQPPGKGLEWIGGIGSVDYSGNTYYKPSLKSRVTISVDTSKNQFSLKLSTVTAADTAVYHCARHRGIYFFDYWGQGTLVTVSSASTKGPSVFPLAPSSKSTSGGTAALGCLVKDYFPEPVTVSWNSGALTSGVHTFPAVLQSSGLYSLSSVVTVPSSSLGTQTYICNVNHKPSNTKVDKRVEPKSC
light: YYELTQPLSVSVALGQTARIPCGGNNIENKNVHWYQQKPGQAPVLVIYRDSNRPSGIPERFSGSNSGNTATLSINRAQAGDEADYYCQVWDSNTVIFGGGTKVTVLGQPKAAPSVTLFPPSSEELQANKATLVCLISDFYPGAVTVAWKADSSPVKAGVETTTPSKQSNNKYAASSYLSLTPEQWKSHKSYSCQVTHEGSTVEKTVAPTECS
notes: also called 97G07(2); anti-OX40L FcFab antibody 97G07
For the molecule B8, in the test with AVI-GST-His6-hOX40L [11], the “IC50 (read off the curve)” value was around 6 nM. Also, the Kd in test [12] was determined as 27.9 nM. For the same molecule, the “Primary T cell activation assay IC50” value in [13] amounted to 4.6 nM. The “OX40L neutralization/OX40-HEK Reporter IC50” value with AVI-GST-His6-hOX40L [14] was 6.2 nM.
